Assay results as given in the supplement of paper PMC10065799, “High-throughput profiling of sequence recognition by tyrosine kinases and SH2 domains using bacterial peptide display” (eLife, 2023).
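Throughout, for SH2 binding enrichment of the phosphorylated peptide, bacterial display: peptide library displayed on the E. coli surface as eCPX fusions, selected cells deep-sequenced, score is each peptide's frequency after selection divided by its frequency in the input.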
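Throughout, for phosphorylation enrichment, bacterial display: 11-residue human phosphosite peptides and single-mutation variants displayed on the E. coli surface, counted by deep sequencing, each peptide's frequency after selection divided by its frequency in the unselected input library; frequency after pTyr selection over input frequency; kinase dosed for 20-30% of maximal phosphorylation in three min.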

Each sequence was assayed on c-Src (assay: phosphorylation enrichment, bacterial display (enrichment ratio); higher = better substrate or ligand; peptides without Tyr show the background).
RQNNSYTCFTA [SLC20A2_Y386_R382Q_YF] showed a phosphorylation enrichment of 0.712. For SARHHYESLQT [BIN1_Y157], the phosphorylation enrichment was 0.447. In the case of EVGHVYLFLQP [ITGA2B_Y360_R358H], the phosphorylation enrichment is reported as 0.434. SSRKEYFIGGG [GYPC_Y126] gave a phosphorylation enrichment of 0.496. Sequence RKKEEYKMALY [F8_Y1990] has a phosphorylation enrichment of 0.546. Work on VHLYAYDWISI [BEST1_Y227_G222V] yielded a phosphorylation enrichment of 1.44. For REVPVYIGEDS [SYNM_Y460], the phosphorylation enrichment was 0.481. With HLQQSNLPRGT [TEX45_Y396_Y396N] the phosphorylation enrichment was 0.42. For KEAALYPHLPP [SQSTM1_Y383], the phosphorylation enrichment was 0.48. Work on KFLENYFDLKK [MMP3_Y41_YF] yielded a phosphorylation enrichment of 0.499. Sequence NARGLYYKLHN [GATA2_Y376_C373R] has a phosphorylation enrichment of 0.695. For HSKGIYFVQLE [MGAT4B_Y262_Q257H_YF], the phosphorylation enrichment was 1.65. For WASSSYRETPS [SORBS1_Y79_R74W], the phosphorylation enrichment was 0.362. Work on NHQYDYTFDWT [CSNK1A1_Y294] yielded a phosphorylation enrichment of 1.62. For PAIERYVVVCK [RHO_Y136_L131P], the phosphorylation enrichment was 0.474. With PFSNPYENSLI [EPOR_Y489_YF] the phosphorylation enrichment was 1.01. With FSNKLYFQLEQ [PDPR_Y109_YF] the phosphorylation enrichment was 0.621. KVVNEYVTKGQ [MYH7_Y410_G407V] showed a phosphorylation enrichment of 0.433. For DPHECYAKVFD [ALB_Y394], the phosphorylation enrichment was 0.665. MWGSDYVHLSR [MAP3K4_Y582_Q584H] gave a phosphorylation enrichment of 0.471. Work on NKEPRYQEEPP [TJP2_Y479_D482E] yielded a phosphorylation enrichment of 0.421. With GYIISYREEEQ the phosphorylation enrichment was 0.516. EFGFRYELVQF [UGGT2_Y1289_Y1285F_YF] was tested, and the phosphorylation enrichment was 0.315. For MGGSLYFSFPD [HIKESHI_Y55_V54L_YF], the phosphorylation enrichment was 5.75. With PFQGAYLEINK [MYO1B_Y967] the phosphorylation enrichment was 0.607. KFACSYTPVKA [FLNB_Y708_T703K_YF] showed a phosphorylation enrichment of 0.459. HNQDGYSYLSR [LDLR_Y845_P848L] gave a phosphorylation enrichment of 0.554. For KRISCYEASFQ [PFKFB3_Y194_YF], the phosphorylation enrichment was 0.568. Work on KCCCIYEKPRA [PPP1R11_Y64] yielded a phosphorylation enrichment of 3.6. RAYRRYLLKQK [SCN2A_Y1919] was tested, and the phosphorylation enrichment was 0.446. GDFFCYLAEVA [YWHAG_Y133_R132C_YF] showed a phosphorylation enrichment of 0.484. For ARLEFCENEKK [IRS1_Y47_Y47C_YF], the phosphorylation enrichment was 0.484. Sequence QNTGDYFDLFG [PTPN11_Y62_YF] has a phosphorylation enrichment of 1.56.

Each sequence was assayed against Grb2 SH2 (UniProt P62993) (assay: SH2 binding enrichment of the phosphorylated peptide, bacterial display (enrichment ratio); higher = better substrate or ligand; peptides without Tyr show the background).
Grb2 SH2, sequence (P62993 whole entry, looked up): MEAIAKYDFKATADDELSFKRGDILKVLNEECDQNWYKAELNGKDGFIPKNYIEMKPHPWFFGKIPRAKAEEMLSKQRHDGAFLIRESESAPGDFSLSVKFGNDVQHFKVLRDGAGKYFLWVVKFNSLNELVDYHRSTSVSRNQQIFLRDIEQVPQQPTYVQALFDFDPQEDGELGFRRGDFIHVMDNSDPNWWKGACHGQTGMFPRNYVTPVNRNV
Sequence RQNNSYTCFTA [SLC20A2_Y386_R382Q_YF] has an SH2 binding enrichment of 0.85. Work on SARHHYESLQT [BIN1_Y157] yielded an SH2 binding enrichment of 0.854. EVGHVYLFLQP [ITGA2B_Y360_R358H] showed an SH2 binding enrichment of 0.755. Work on SSRKEYFIGGG [GYPC_Y126] yielded an SH2 binding enrichment of 0.703. For RKKEEYKMALY [F8_Y1990], the SH2 binding enrichment was 1.38. With VHLYAYDWISI [BEST1_Y227_G222V] the SH2 binding enrichment was 1.48. For REVPVYIGEDS [SYNM_Y460], the SH2 binding enrichment was 0.707. In the case of HLQQSNLPRGT [TEX45_Y396_Y396N], the SH2 binding enrichment is reported as 0.837. KEAALYPHLPP [SQSTM1_Y383] showed an SH2 binding enrichment of 0.763. With KFLENYFDLKK [MMP3_Y41_YF] the SH2 binding enrichment was 0.886. NARGLYYKLHN [GATA2_Y376_C373R] was tested, and the SH2 binding enrichment was 1.02. In the case of HSKGIYFVQLE [MGAT4B_Y262_Q257H_YF], the SH2 binding enrichment is reported as 1.53. WASSSYRETPS [SORBS1_Y79_R74W] showed an SH2 binding enrichment of 0.779. NHQYDYTFDWT [CSNK1A1_Y294] was tested, and the SH2 binding enrichment was 1.07. In the case of PAIERYVVVCK [RHO_Y136_L131P], the SH2 binding enrichment is reported as 0.857. For PFSNPYENSLI [EPOR_Y489_YF], the SH2 binding enrichment was 15.5. FSNKLYFQLEQ [PDPR_Y109_YF] was tested, and the SH2 binding enrichment was 0.626. KVVNEYVTKGQ [MYH7_Y410_G407V] gave an SH2 binding enrichment of 0.857. For DPHECYAKVFD [ALB_Y394], the SH2 binding enrichment was 0.987. In the case of MWGSDYVHLSR [MAP3K4_Y582_Q584H], the SH2 binding enrichment is reported as 0.914. NKEPRYQEEPP [TJP2_Y479_D482E] was tested, and the SH2 binding enrichment was 1.07. For GYIISYREEEQ, the SH2 binding enrichment was 0.857. With EFGFRYELVQF [UGGT2_Y1289_Y1285F_YF] the SH2 binding enrichment was 0.849. With MGGSLYFSFPD [HIKESHI_Y55_V54L_YF] the SH2 binding enrichment was 0.926. PFQGAYLEINK [MYO1B_Y967] was tested, and the SH2 binding enrichment was 0.874. Sequence KFACSYTPVKA [FLNB_Y708_T703K_YF] has an SH2 binding enrichment of 0.862. In the case of HNQDGYSYLSR [LDLR_Y845_P848L], the SH2 binding enrichment is reported as 0.698. In the case of KRISCYEASFQ [PFKFB3_Y194_YF], the SH2 binding enrichment is reported as 0.64. KCCCIYEKPRA [PPP1R11_Y64] gave an SH2 binding enrichment of 0.879. In the case of RAYRRYLLKQK [SCN2A_Y1919], the SH2 binding enrichment is reported as 0.61. Sequence GDFFCYLAEVA [YWHAG_Y133_R132C_YF] has an SH2 binding enrichment of 0.618. Work on ARLEFCENEKK [IRS1_Y47_Y47C_YF] yielded an SH2 binding enrichment of 0.743. In the case of QNTGDYFDLFG [PTPN11_Y62_YF], the SH2 binding enrichment is reported as 0.795.

The sequences below were run against SHP2-C SH2 in the same assay as above.
RQNNSYTCFTA [SLC20A2_Y386_R382Q_YF] gave an SH2 binding enrichment of 0.998. In the case of SARHHYESLQT [BIN1_Y157], the SH2 binding enrichment is reported as 0.952. With EVGHVYLFLQP [ITGA2B_Y360_R358H] the SH2 binding enrichment was 0.669. Sequence SSRKEYFIGGG [GYPC_Y126] has an SH2 binding enrichment of 0.677. RKKEEYKMALY [F8_Y1990] gave an SH2 binding enrichment of 0.762. VHLYAYDWISI [BEST1_Y227_G222V] was tested, and the SH2 binding enrichment was 1.42. For REVPVYIGEDS [SYNM_Y460], the SH2 binding enrichment was 0.625. HLQQSNLPRGT [TEX45_Y396_Y396N] was tested, and the SH2 binding enrichment was 0.583. For KEAALYPHLPP [SQSTM1_Y383], the SH2 binding enrichment was 0.708. KFLENYFDLKK [MMP3_Y41_YF] gave an SH2 binding enrichment of 0.709. NARGLYYKLHN [GATA2_Y376_C373R] gave an SH2 binding enrichment of 0.866. Sequence HSKGIYFVQLE [MGAT4B_Y262_Q257H_YF] has an SH2 binding enrichment of 1.45. In the case of WASSSYRETPS [SORBS1_Y79_R74W], the SH2 binding enrichment is reported as 0.846. NHQYDYTFDWT [CSNK1A1_Y294] gave an SH2 binding enrichment of 0.561. PAIERYVVVCK [RHO_Y136_L131P] was tested, and the SH2 binding enrichment was 0.751. For PFSNPYENSLI [EPOR_Y489_YF], the SH2 binding enrichment was 0.501. FSNKLYFQLEQ [PDPR_Y109_YF] gave an SH2 binding enrichment of 0.562. With KVVNEYVTKGQ [MYH7_Y410_G407V] the SH2 binding enrichment was 0.798. Work on DPHECYAKVFD [ALB_Y394] yielded an SH2 binding enrichment of 1.32. MWGSDYVHLSR [MAP3K4_Y582_Q584H] gave an SH2 binding enrichment of 0.746. NKEPRYQEEPP [TJP2_Y479_D482E] gave an SH2 binding enrichment of 0.644. Work on GYIISYREEEQ yielded an SH2 binding enrichment of 1.04. Work on EFGFRYELVQF [UGGT2_Y1289_Y1285F_YF] yielded an SH2 binding enrichment of 0.859. For MGGSLYFSFPD [HIKESHI_Y55_V54L_YF], the SH2 binding enrichment was 0.591. PFQGAYLEINK [MYO1B_Y967] was tested, and the SH2 binding enrichment was 0.832. KFACSYTPVKA [FLNB_Y708_T703K_YF] showed an SH2 binding enrichment of 1.99. With HNQDGYSYLSR [LDLR_Y845_P848L] the SH2 binding enrichment was 2.08. KRISCYEASFQ [PFKFB3_Y194_YF] was tested, and the SH2 binding enrichment was 0.53. Work on KCCCIYEKPRA [PPP1R11_Y64] yielded an SH2 binding enrichment of 0.705. With RAYRRYLLKQK [SCN2A_Y1919] the SH2 binding enrichment was 0.573. For GDFFCYLAEVA [YWHAG_Y133_R132C_YF], the SH2 binding enrichment was 0.701. In the case of ARLEFCENEKK [IRS1_Y47_Y47C_YF], the SH2 binding enrichment is reported as 0.686. QNTGDYFDLFG [PTPN11_Y62_YF] gave an SH2 binding enrichment of 0.689.

What follows are sequences tested against c-Src SH2 in the same assay as above.
Sequence RQNNSYTCFTA [SLC20A2_Y386_R382Q_YF] has an SH2 binding enrichment of 0.923. For SARHHYESLQT [BIN1_Y157], the SH2 binding enrichment was 34.4. Work on EVGHVYLFLQP [ITGA2B_Y360_R358H] yielded an SH2 binding enrichment of 0.425. Sequence SSRKEYFIGGG [GYPC_Y126] has an SH2 binding enrichment of 0.63. In the case of RKKEEYKMALY [F8_Y1990], the SH2 binding enrichment is reported as 0.931. Sequence VHLYAYDWISI [BEST1_Y227_G222V] has an SH2 binding enrichment of 1.18. REVPVYIGEDS [SYNM_Y460] was tested, and the SH2 binding enrichment was 0.691. HLQQSNLPRGT [TEX45_Y396_Y396N] showed an SH2 binding enrichment of 0.748. KEAALYPHLPP [SQSTM1_Y383] gave an SH2 binding enrichment of 0.474. Sequence KFLENYFDLKK [MMP3_Y41_YF] has an SH2 binding enrichment of 0.604. Work on NARGLYYKLHN [GATA2_Y376_C373R] yielded an SH2 binding enrichment of 1.23. HSKGIYFVQLE [MGAT4B_Y262_Q257H_YF] was tested, and the SH2 binding enrichment was 1.08. WASSSYRETPS [SORBS1_Y79_R74W] gave an SH2 binding enrichment of 0.467. In the case of NHQYDYTFDWT [CSNK1A1_Y294], the SH2 binding enrichment is reported as 3. With PAIERYVVVCK [RHO_Y136_L131P] the SH2 binding enrichment was 0.686. Sequence PFSNPYENSLI [EPOR_Y489_YF] has an SH2 binding enrichment of 4.88. Sequence FSNKLYFQLEQ [PDPR_Y109_YF] has an SH2 binding enrichment of 0.523. For KVVNEYVTKGQ [MYH7_Y410_G407V], the SH2 binding enrichment was 0.369. With DPHECYAKVFD [ALB_Y394] the SH2 binding enrichment was 3.02. With MWGSDYVHLSR [MAP3K4_Y582_Q584H] the SH2 binding enrichment was 0.568. NKEPRYQEEPP [TJP2_Y479_D482E] was tested, and the SH2 binding enrichment was 0.568. In the case of GYIISYREEEQ, the SH2 binding enrichment is reported as 0.527. EFGFRYELVQF [UGGT2_Y1289_Y1285F_YF] showed an SH2 binding enrichment of 1.4. MGGSLYFSFPD [HIKESHI_Y55_V54L_YF] showed an SH2 binding enrichment of 0.444. In the case of PFQGAYLEINK [MYO1B_Y967], the SH2 binding enrichment is reported as 7.89. KFACSYTPVKA [FLNB_Y708_T703K_YF] gave an SH2 binding enrichment of 0.978. In the case of HNQDGYSYLSR [LDLR_Y845_P848L], the SH2 binding enrichment is reported as 11.7. In the case of KRISCYEASFQ [PFKFB3_Y194_YF], the SH2 binding enrichment is reported as 0.502. KCCCIYEKPRA [PPP1R11_Y64] gave an SH2 binding enrichment of 0.478. In the case of RAYRRYLLKQK [SCN2A_Y1919], the SH2 binding enrichment is reported as 0.514. GDFFCYLAEVA [YWHAG_Y133_R132C_YF] gave an SH2 binding enrichment of 0.491. Work on ARLEFCENEKK [IRS1_Y47_Y47C_YF] yielded an SH2 binding enrichment of 0.626. Work on QNTGDYFDLFG [PTPN11_Y62_YF] yielded an SH2 binding enrichment of 0.409.
